Reference: PMC3630103, “Development of a Highly Protective Combination Monoclonal Antibody Therapy against Chikungunya Virus” (PLoS Pathogens, 2013)

B1: CHK-152 (mouse monoclonal antibody) (antibody, V domains shown)
VH: QVQLQQPGAALVKPGASAMMSCKASGYTFTSYWITWVKQRPGQGLEWIGDIYPGTGRTIYKEKFKTKATLTVDTSSSTAFMQLNSLTSEDSAVYYCARGYGSPYYALDYWGQGTSVTVSS
VL: DIVLTQSPASLAVSQGQRATISCKASQSVDYDGDSYVNWYQQKPGQSPKLLIYDASNLESGIPARFSGSGSGTDFTLNIHPVEEEDVATYYCQESNEDPRTFGGGTKLEIK
notes: mouse VH of CHK-152; mouse IgG heavy-chain constant region; mouse VL of CHK-152; mouse light-chain constant region; also called murine CHK-152; mouse CHK-152
B2: CHK-166 (mouse monoclonal antibody) (antibody, V domains shown)
VH: EVRLVESGGGLEQPGGSLKLSCAASGFTFSDYFMYWVRQTPEKRLEWVAYISNGGISTFYSDAVKGRFTISRDNARNTLYLQMSRLKSEDTAIYYCVRQVYGQGYFDYWGQGTTLAVSS
VL: QIVLIQSPAIMSASLGERVTMTCTASSSVSSSYLHWYQQKPGSSPKLWIYSSFSLASGVPARFSGSGSGTSYSLTISTMEAEDAATYYCHQYLRSPWTFGGGSKLEIK
B3: CHK-102 (mouse monoclonal antibody) (antibody, V domains shown)
VH: QVQLQQSGAELVKPGASVKISCKTSGYAFSSFWMHWVKQRPGKGLEWIGQIYPGDGDTNYNGKFKDKATLTADKSSNTAYMQLTSLTSEDSAVYFCARNLLFDYWGQGTTLTVSS
VL: EILMTQSPAILSVSPGERVSFSCRASQSIGSNIHWYQQRTNGSPRLLIKYASESISGIPSRFSGSGSGTDFTLSINSVESEDIADYYCQQNNIWPFTFGSGTKLEIK
B4: CHK-263 (mouse monoclonal antibody) (antibody, V domains shown)
VH: QVQLQQSGAELVKPGASVKISCKASGYAFSSYWMNWVKQRPGKGLEWIGQIYPGDGDTNYNGKFKGKATLTADKSSSTAYMQLSSLTSEDSAVYFCARGGLTIDYWGQGTTLTVSS
VL: DIVLTQSPATLSVTPGDSVSLSCRASQSISDNLHWYQQKSHESPGLLIKYASQSISGIPSRFSGSGSGTDFTLSINSVETEDFGMYFCQQSNSWPYTFGGGTKLEIK

target: T1, CHIKV 181-25 virion (Chikungunya virus, strain 181/25 …, UniProt Q88628, strain); test: ELISA; virion capture competition ELISA: plates coated with 5 µg/ml CHK-65, 3x10^6 FFU of CHIKV 181-25 captured, incubated with mouse MAbs for one hour, washed, then 125 ng/ml hu-CHK-152, detected with biotin-labeled goat anti-human antibody and HRP-streptavidin; details: one partner purified
T1 construct: E2 envelope glycoprotein of Chikungunya virus strain 181-25, on virions; E1 envelope glycoprotein of Chikungunya virus strain 181-25, on virions; Whole virus particle captured on the plate by the MAb CHK-65; the capsid protein inside the particle is not written as a chain; also called CHIKV virion; virions; copies: 240 + 240

Binder | binding result
B1 | binds

target: CHIKV pE2-E1 (E3-E2-E1) of the CHIKV-LR strain (Chikungunya virus La Reunion 2006 OPY-1 …, strain); test: cell-based or functional assay; details: not given

Binder | EC50 of neutralisation of CHIKV-LR (FRNT on NIH 3T3 cells) [µg/mL] | EC50 of neutralisation of CHIKV-LR (FRNT on Vero cells) [µg/mL] | EC90 of neutralisation of CHIKV-LR (FRNT on Vero cells) [µg/mL]
B1 | 0.001 | 0.002 | 0.01
B2 | 0.202 | 0.154 | 8.6
B3 | 0.03 | 0.014 | 0.351
B4 | 0.002 | 0.005 | 0.136
